Results reported in PMC8907193, “The YΦ motif defines the structure-activity relationships of human 20S proteasome activators” (Nature Communications, 2022).
Read-outs that look alike come from different tables or passages of the source.

Key:
[1] = biological target: human 20S proteasome (human) (UniProt P60900)
[2] = biological target: biotinylated human 20S proteasome (human) (UniProt P60900); assay: BLI

Question: Which EC50 of stimulation of h20S activity [1] does the source give for PA26^AY here?
Answer: The EC50 of stimulation of h20S activity was 8.3 nM.

Question: Which results are given for PA26^AY (from UniProt Q9U8G2)?
Answer: Kd [2]: 0.28 nM; koff [2]: 0.0004 s⁻¹

Question: Which Kd ([2]; natural protein) does the source give for “PA26^E102A (disabled-loop mutant) (from UniProt Q9U8G2)” here?
Answer: Its Kd is over 100 nM.

Question: Which EC50 of stimulation of h20S activity [1] does the source give for PA26^YA here?
Answer: The EC50 of stimulation of h20S activity was over 3000 nM.

Question: What about the stimulation of h20S activity, loss against PA26^YY [1] of the same substance?
Answer: The stimulation of h20S activity, loss against PA26^YY was 80 % reduction.

Question: For PA26^YA (from UniProt Q9U8G2), which Kd [2] is on record?
Answer: Its Kd is 36 nM.

Question: What about the koff [2] of the same substance?
Answer: Its koff is 0.011 s⁻¹.
